Assay results reported in patent US20110305732A1.

Target: human Robo-1 (human) (UniProt Q9Y6N7)
Assay: cell-based or functional assay

Chain of UniProt Q9Y6N7 (Q9Y6N7 26-1651): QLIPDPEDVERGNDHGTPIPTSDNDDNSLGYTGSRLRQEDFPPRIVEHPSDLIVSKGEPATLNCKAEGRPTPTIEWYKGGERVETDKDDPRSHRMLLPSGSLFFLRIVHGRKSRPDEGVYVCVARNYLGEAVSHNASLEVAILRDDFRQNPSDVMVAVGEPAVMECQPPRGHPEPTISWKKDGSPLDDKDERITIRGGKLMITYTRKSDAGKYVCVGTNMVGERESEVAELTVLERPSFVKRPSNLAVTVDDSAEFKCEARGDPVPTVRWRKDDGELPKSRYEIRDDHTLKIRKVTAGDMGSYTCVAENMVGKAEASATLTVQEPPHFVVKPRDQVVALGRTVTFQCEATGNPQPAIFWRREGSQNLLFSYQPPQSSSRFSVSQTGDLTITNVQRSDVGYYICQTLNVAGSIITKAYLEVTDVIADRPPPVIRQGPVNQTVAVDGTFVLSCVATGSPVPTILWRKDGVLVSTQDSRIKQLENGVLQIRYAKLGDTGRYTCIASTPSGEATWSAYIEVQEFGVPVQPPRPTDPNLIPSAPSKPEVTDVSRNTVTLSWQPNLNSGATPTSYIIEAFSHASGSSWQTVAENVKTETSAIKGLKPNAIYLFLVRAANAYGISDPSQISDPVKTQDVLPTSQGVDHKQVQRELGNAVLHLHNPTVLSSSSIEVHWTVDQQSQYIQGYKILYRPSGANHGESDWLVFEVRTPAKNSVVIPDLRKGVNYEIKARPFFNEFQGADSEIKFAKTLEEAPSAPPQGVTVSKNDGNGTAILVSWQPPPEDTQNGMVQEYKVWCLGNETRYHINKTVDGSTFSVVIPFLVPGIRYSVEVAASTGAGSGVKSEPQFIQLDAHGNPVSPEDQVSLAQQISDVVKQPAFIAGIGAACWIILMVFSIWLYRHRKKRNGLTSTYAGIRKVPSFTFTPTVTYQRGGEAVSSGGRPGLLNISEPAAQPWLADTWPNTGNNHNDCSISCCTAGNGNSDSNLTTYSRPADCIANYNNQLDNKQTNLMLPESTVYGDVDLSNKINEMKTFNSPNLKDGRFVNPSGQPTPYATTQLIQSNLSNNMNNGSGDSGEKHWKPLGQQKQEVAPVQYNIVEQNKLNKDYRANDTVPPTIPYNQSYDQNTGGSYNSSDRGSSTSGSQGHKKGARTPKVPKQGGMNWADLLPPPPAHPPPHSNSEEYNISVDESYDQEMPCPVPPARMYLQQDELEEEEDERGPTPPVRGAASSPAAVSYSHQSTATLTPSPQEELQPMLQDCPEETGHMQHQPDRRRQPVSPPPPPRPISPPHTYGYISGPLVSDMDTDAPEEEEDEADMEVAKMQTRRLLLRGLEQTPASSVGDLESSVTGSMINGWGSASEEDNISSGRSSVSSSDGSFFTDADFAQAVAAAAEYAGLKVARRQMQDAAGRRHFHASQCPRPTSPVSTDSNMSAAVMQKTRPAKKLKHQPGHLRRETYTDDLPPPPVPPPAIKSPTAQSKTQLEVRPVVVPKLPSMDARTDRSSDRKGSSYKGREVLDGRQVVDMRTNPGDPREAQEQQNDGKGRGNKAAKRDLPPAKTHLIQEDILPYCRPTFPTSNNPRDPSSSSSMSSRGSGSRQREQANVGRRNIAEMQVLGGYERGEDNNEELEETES

average platelet surface area coverage on collagen at shear flow rate 1900 sec^-1: 3.1%
average surface area covered by platelets on collagen at shear flow rate 1000 sec^-1: 1.3%
mean platelet surface area on fibrinogen after 30 min (platelet spreading): 20.9 µm^2
mean surface area of platelets on collagen after 30 min (platelet spreading): 13.5 µm^2
mean surface area of platelets on fibronectin after 30 min (platelet spreading): 19.3 µm^2
percentage of platelets expressing cell-surface CD62P after ADP stimulation: 13.2%
phosphorylation of Akt during platelet spreading on fibrinogen (fold over basal 1.0) (fold over basal): 2.8
B1: full length human Slit2 (ligand, UniProt O94813-3 31-1521, looked up)
chain: QCSCSGSTVDCHGLALRSVPRNIPRNTERLDLNGNNITRITKTDFAGLRHLRVLQLMENKISTIERGAFQDLKELERLRLNRNHLQLFPELLFLGTAKLYRLDLSENQIQAIPRKAFRGAVDIKNLQLDYNQISCIEDGAFRALRDLEVLTLNNNNITRLSVASFNHMPKLRTFRLHSNNLYCDCHLAWLSDWLRQRPRVGLYTQCMGPSHLRGHNVAEVQKREFVCSGHQSFMAPSCSVLHCPAACTCSNNIVDCRGKGLTEIPTNLPETITEIRLEQNTIKVIPPGAFSPYKKLRRIDLSNNQISELAPDAFQGLRSLNSLVLYGNKITELPKSLFEGLFSLQLLLLNANKINCLRVDAFQDLHNLNLLSLYDNKLQTIAKGTFSPLRAIQTMHLAQNPFICDCHLKWLADYLHTNPIETSGARCTSPRRLANKRIGQIKSKKFRCSGTEDYRSKLSGDCFADLACPEKCRCEGTTVDCSNQKLNKIPEHIPQYTAELRLNNNEFTVLEATGIFKKLPQLRKINFSNNKITDIEEGAFEGASGVNEILLTSNRLENVQHKMFKGLESLKTLMLRSNRITCVGNDSFIGLSSVRLLSLYDNQITTVAPGAFDTLHSLSTLNLLANPFNCNCYLAWLGEWLRKKRIVTGNPRCQKPYFLKEIPIQDVAIQDFTCDDGNDDNSCSPLSRCPTECTCLDTVVRCSNKGLKVLPKGIPRDVTELYLDGNQFTLVPKELSNYKHLTLIDLSNNRISTLSNQSFSNMTQLLTLILSYNRLRCIPPRTFDGLKSLRLLSLHGNDISVVPEGAFNDLSALSHLAIGANPLYCDCNMQWLSDWVKSEYKEPGIARCAGPGEMADKLLLTTPSKKFTCQGPVDVNILAKCNPCLSNPCKNDGTCNSDPVDFYRCTCPYGFKGQDCDVPIHACISNPCKHGGTCHLKEGEEDGFWCICADGFEGENCEVNVDDCEDNDCENNSTCVDGINNYTCLCPPEYTGELCEEKLDFCAQDLNPCQHDSKCILTPKGFKCDCTPGYVGEHCDIDFDDCQDNKCKNGAHCTDAVNGYTCICPEGYSGLFCEFSPPMVLPRTSPCDNFDCQNGAQCIVRINEPICQCLPGYQGEKCEKLVSVNFINKESYLQIPSAKVRPQTNITLQIATDEDSGILLYKGDKDHIAVELYRGRVRASYDTGSHPASAIYSVETINDGNFHIVELLALDQSLSLSVDGGNPKIITNLSKQSTLNFDSPLYVGGMPGKSNVASLRQAPGQNGTSFHGCIRNLYINSELQDFQKVPMQTGILPGCEPCHKKVCAHGTCQPSSQAGFTCECQEGWMGPLCDQRTNDPCLGNKCVHGTCLPINAFSYSCKCLEGHGGVLCDEEEDLFNPCQAIKCKHGKCRLSGLGQPYCECSSGYTGDSCDREISCRGERIRDYYQKQQGYAACQTTKKVSRLECRGGCAGGQCCGPLRSKRRKYSFECTDGSSFVDEVEKVVKCGCTRCVS
